Assay: yeast display, Sf9 membrane polyspecificity reagent, FACS + sequencing; frameworks hold sequencing errors
How it was run: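 Polyreactivity labels are assigned by the sorting gate from which each nanobody was recovered. The gates were low and high (top ~1%), set on anti-HA fluorescence for expression and streptavidin fluorescence for reagent binding. Before sorting, galactose-induced (36–48 hours) yeast display cells were stained for 1 hour at 4 °C with 10% biotinylated, detergent-solubilized Sf9 membrane reagent.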

| Sequence | polyreactivity (PSR sort gate) |
| --- | --- |
| QVQLVESGGGLVQAGGSLRLSCAASGRIFRYYAMGWYRQATGKERELVATITASSGSTYYADSVKGRFTISRDNAKNTVYLQMNSLKPEDSAVYYCAAGFVYRPGSFIRFDYWGQGTQVTVSS | high polyreactivity |
| QVQLVESGGGLVQAGGSLRLSCAASGRIFRYYDMGWYRQAPGKEREFVAAITRSGAITYYADSVKGRFTISRDNAKNTVYLQMNSLKPEDTAVYYCAARYWAKFGYWGQGTQVTVSS | low polyreactivity |
| QVQLVESGGGLVQAGGSLRLSCAASGRIFRYYMGWYRQAPGKERELVAVISSGGRTKYADSVKGRFTISRDNAKNTVYLQMNSLKPEDTAVYYCAARYPREAAYGFDYWGQGTQVTVSS | high polyreactivity |
| QVQLVESGGGLVQAGGSLRLSCAASGRIFRYYTMGWYRQAHGKEREFVATITSSGGSTNYADSVKGRFTISRDNAKNSVYIQTNSLKPEDTAVYYCAKTSRAPWDGYYWGEGTQVTVSS | low polyreactivity |
| QVQLVESGGGLVQAGGSLRLSCAASGRIFRYYTMGWYRQAPGKERELVAAINSSCGSTYYADSVKGRFTISRDNAKNTVYLQMNSLIAEDTAVYYCNAVGYTGRYQFWRVWDVHGDYWGQGNQVTVSS | high polyreactivity |
| QVQLVESGGGLVQAGGSLRLSCAASGRIFRYYTMGWYRQAPGKERELVAAISWTGGRTYYADSVKGRFTISRDNAKNTVYLQMNSLKPEDTAVYYCAATNRYYIFDYWGQGTQVTVSS | high polyreactivity |
| QVQLVESGGGLVQAGGSLRLSCAASGRIFSANAMGWYRQAPGKERELVAISWTGGSTYYADSVKGRFTISRDNAKNTVYLQMNSLKPEDTAVYYCAKERYGKYFGSVDYWGQGTQVTVSS | low polyreactivity |
| QVQLVESGGGLVQAGGSLRLSCAASGRIFSAYAMGWYRPAPGKERELVAAISWSGGSTYYADSVKGRFTISRDNAKNTVYLQMNSLKPEDTAVYYCAADYFYTSWYQHDYWGQGTQVTVSS | low polyreactivity |
| QVQLVESGGGLVQAGGSLRLSCAASGRIFSDYAMGWYRQAPGKERELVAVISWDGTNTYYADSVKGRFTISRDNAKNTVYLQMNSLKPEDTAVYYCAATGTSYYSAYDYWGQGTQVTVSS | low polyreactivity |
| QVQLVESGGGLVQAGGSLRLSCAASGRIFSDYVMGWYRQAPGKERELVADITGGGSTYYADSVKGRFTISRDNAKNTVYLQMNSLKPEDTAVYYCAARVYSYWDRSQRYYYCGQGTQVTVSS | high polyreactivity |
| QVQLVESGGGLVQAGGSLRLSCAASGRIFSENAMGWYRQAPGKERELVAAISVSGGSTYYADSVKGRFTISRDNAKNTVYLQMNSLKPEDTAVYYCAAEYLAYYSGYDYWGQGTQVTVSS | high polyreactivity |
| QVQLVESGGGLVQAGGSLRLSCAASGRIFSFNARGWYRPAPGKETELVAGITYGGNTYYADSVKGRFTISRDNAKNTVYLQMNSLKPEDTAVYYCAADGVYDQNLYGFWGQGTQVTVSS | low polyreactivity |
| QVQLVESGGGLVQAGGSLRLSCAASGRIFSFNGMGWYRPAPGKERELVAAITSSGGRTYYADSVKGRFTISRDNAKNTVYLQMNSLIPEDTAVYYCAAELAWDYYWGQGTQVTVSS | low polyreactivity |
| QVQLVESGGGLVQAGGSLRLSCAASGRIFSFYAMGWYRQAPGKERELVATISDGGATTYYADSVKGRFTISRDNAKNTVYLQMNSLKPEDTAVYYCNARRESYYQRYRVDYWGQGTQVTVSS | low polyreactivity |
| QVQLVESGGGLVQAGGSLRLSCAASGRIFSFYAMGWYRQAPGKERELVATISKRAGSTYYADSVKGRFTISRDNAKNTVYLQMNSLKPEDTAVYYCAARKWYYASSRWRDYWGQGTQVTVSS | high polyreactivity |
| QVQLVESGGGLVQAGGSLRLSCAASGRIFSGYAMGWYRQAPGKERELVAAITSRSGSTYYADSVKGRFTISRDNAKNTVYLQMNSLKPEDTAVYYCAAEYVRFYWYTSDYWGQGTQVTVSS | low polyreactivity |

| Sequence | polyreactivity (PSR sort gate) |
| --- | --- |
| QVQLVESGGGLVQAGGSLRLSCAASGRIFSGYAMGWYRQAPGKERELVAAIYGGGSTNYADSVKGRFTISRDNAKNTVYLQMNSLKPEDTAVYYCATQYWHYPYWLYKYDYWGQGTQVTVSS | low polyreactivity |
| QVQLVESGGGLVQAGGSLRLSCAASGRIFSGYTMGWYRQAPGKERELVAAIRVGGGRTYYADSVKGRFTISRDNSKNTVYLQMYSLKPEDTAVYYCAKLYIRHGYDYWGQGTQVTVSS | low polyreactivity |
| QVQLVESGGGLVQAGGSLRLSCAASGRIFSGYTMGWYRQAPGKERELVAAITRSGGSTYYADSVKGRFTISRDNAKNTVYLQMNSLKPEDTAVYYCNKVSYRRMDSWGQGTQVTVSS | high polyreactivity |
| QVQLVESGGGLVQAGGSLRLSCAASGRIFSHYDLGWYRQAPGKEREVVAAISSGGITYYADSVKGRFTISRDNAKNTVYLQRNSLKPEDTAVYYCAAVRRRGTTYDYWGQGTQVTVSS | high polyreactivity |
| QVQLVESGGGLVQAGGSLRLSCAASGRIFSINAMGWYRQAPGKEREFVATISDRGSTTSYADSVKGRFTISGDNAKNTVDLQMNSLKPDDTAVYYCAARSYYRYDYWGQGTQVTVSS | high polyreactivity |
| QVQLVESGGGLVQAGGSLRLSCAASGRIFSINAMGWYRQAPGKERELVAAITSRGTSTYYADSVKGRFTISRDNAKNTVYLQMNSMKPEDTAVYYCAKKYVGGPWPRYFWGQGTQVTVSS | high polyreactivity |
| QVQLVESGGGLVQAGGSLRLSCAASGRIFSIYAMGWYRQAPGKERELVAAIRSRGGRTHYADSVKVRFTISRDNAKNTVYLQMNSLKPEDTAVYFCNAKYFSGDNYWGQGTQVTVSS | high polyreactivity |
| QVQLVESGGGLVQAGGSLRLSCAASGRIFSKNAMGWCRQAPGKERELVAGITSISGSTYYADSVKGRFTISRDNAKNTVYLQMNSLKPEDTAVYYCAARFPHRHYLLYTYDYWGQGTQVTVSS | low polyreactivity |
| QVQLVESGGGLVQAGGSLRLSCAASGRIFSKYAMGWYRQAPGKEREFVASISYRGGSTYYADSVKGRFTISRDNAKNTVYLQMNSLKPEDTAVYYCATRKYADRESDYWGQGTQVTVSS | high polyreactivity |
| QVQLVESGGGLVQAGGSLRLSCAASGRIFSKYAMGWYRQAPGKERELVAAISNGGSTNYADTVKGRFTISRDNAKNTVYLQMNSLKPEDTAVYYCAKQDRVLYGGYDSWGQGTQVTVSS | low polyreactivity |
| QVQLVESGGGLVQAGGSLRLSCAASGRIFSKYAMGWYRQAPGKERELVAAITSGGRTYYADSVKGRFTISRDNAKNTVYLQMNSLIPEDTAVYYCAARYVQVVRKFGYWGQGTQVTVSS | high polyreactivity |
| QVQLVESGGGLVQAGGSLRLSCAASGRIFSLNVMGWYRPAPGKERELVATIRGRGTSTYYADSVKGRFTISRDNAKNTVYLQMNSLKPEDTAVYYCAARGHGAYGYWGQGTQVTVSS | low polyreactivity |
| QVQLVESGGGLVQAGGSLRLSCAASGRIFSLYAMGWYRQAPGKERELDAAITWSSGSTYYADSVKGRFTISRDNAKNTVYLQMNSLKPEDTAVYYCAARVFTLLGYSFEYWGQGTQVTVSS | low polyreactivity |
| QVQLVESGGGLVQAGGSLRLSCAASGRIFSNNAMGWYRQAPGKERELVAAISSSGSTYYADSVKGRFTISRDNAKNTVYLLMNSLKPEDTAVYYCAVVYGYPYLRGYVYGFNYWGQGTQVTVSS | low polyreactivity |
| QVQLVESGGGLVQAGGSLRLSCAASGRIFSPYAMGWYRQAPGKERELVAAINYSGSRTYYADSVTGRFTISRDNAKNTVYLQMNSLKPEDTAVYYCARPWAPSSRGNGYWGLGTQVTVSS | high polyreactivity |
| QVQLVESGGGLVQAGGSLRLSCAASGRIFSRNAMGWYRQAPGKERELVAAISRSGGSTYYADSVKGRFTISRDNAKNTVYLQMNSLKPEDTAVYYCNTRYRPVKGSGPRYDYWGQGTQVTVSS | low polyreactivity |
